Consider 4 proteins from publication PMC7750480, “A hybrid approach reveals the allosteric regulation of GTP cyclohydrolase I” (Proceedings of the National Academy of Sciences of the …, 2020).

Holding throughout (type): biochemical, human
What all share (settings): other: substrate GTP 1-2000 µM, without GFRP, not stimulated/inhibited; pH 7.5; 37.0 °C

Substrate in series [1]: Nc1nc2c(ncn2[C@@H]2O[C@H](COP(=O)(O)OP(=O)(O)OP(=O)(O)O)[C@@H](O)[C@H]2O)c(=O)[nH]1
Nature of the series: enzyme kinetics, H2NTP formation at 330 nm, R235A-GCH1. The method, then:
(§1) In order to test the role of the key residues H126, D127, E128, R235, and R241 involved in allosteric inhibitor binding and conformational change, various point mutants were prepared and tested for their ability to be stimulated and inhibited by effector molecules in the presence or absence of GFRP. […] Enzyme activity was evaluated using an activity assay measuring the formation of the product H2NTP at 330 nm with increasing GTP concentrations.
(§2) GTPCH-I specific enzyme activity was determined by spectrometric measuring of the concentration of its direct product H2NTP. Synergy H1 (BioTek Instruments) and Gen5 2.01 software were used to evaluate H2NTP concentration and the maximal turnover rate (Vmax) within each measuring interval. H2NTP concentration was measured at 330 nm over a measuring period of 2 h using a measuring interval of 2 min to 4 min at 37 °C. Samples were prepared using 2 μM GTPCH-I, varying concentrations of GTP (1 μM to 2,000 µM) and in the absence or presence of 15 mM phenylalanine, 0.1 mM BH4, or 3 μM GFRP. The assay buffer used was 50 mM Tris/HCl, pH 7.5, 100 mM KCl. The specific enzyme activity (A) was calculated using the path length of 0.15 cm and the extinction coefficient […] = 6,300 M^−1⋅cm^−1 H2NTP. […] All enzymatic data were, at least, measured in triplicate (n = 3).

Substrate in series [2]: Nc1nc2c(ncn2[C@@H]2O[C@H](COP(=O)(O)OP(=O)(O)OP(=O)(O)O)[C@@H](O)[C@H]2O)c(=O)[nH]1
Nature of the series: enzyme kinetics, H2NTP formation at 330 nm, D127A GCH1. How it is done:
as §1, §2

Substrate in series [3]: Nc1nc2c(ncn2[C@@H]2O[C@H](COP(=O)(O)OP(=O)(O)OP(=O)(O)O)[C@@H](O)[C@H]2O)c(=O)[nH]1
Nature of the series: enzyme kinetics, H2NTP formation at 330 nm, F122A GCH1. How it is done:
as §1, §2

Substrate in series [4]: Nc1nc2c(ncn2[C@@H]2O[C@H](COP(=O)(O)OP(=O)(O)OP(=O)(O)O)[C@@H](O)[C@H]2O)c(=O)[nH]1
The experiment in a line: enzyme kinetics, H2NTP formation at 330 nm, R241A-GCH1. The method, then:
as §1, §2

B1: R235A-GCH1 (Homo sapiens; R235A) (protein)
chain: PEAKSAQPADGWKGERPRSEEDNELNLPNLAAAYSSILSSLGENPQRQGLLKTPWRAASAMQFFTKGYQETISDVLNDAIFDEDHDEMVIVKDIDMFSMCEHHLVPFVGKVHIGYLPNKQVLGLSKLARIVEIYSRRLQVQERLTKQIAVAITEALRPAGVGVVVEATHMCMVMRGVQKMNSKTVTSTMLGVFAEDPKTREEFLTLIRS
notes: The hGCH1 (42-250, N-terminal 6xHis Tag and TEV cleavage site); 6xHis (N); TEV cleavage site (N); made in house; host or cells: E. coli BL21(DE3)
As a reminder, the Km is the substrate concentration at which the rate is half of its maximum. Regarding B1, the Km in series [1] was 328 µM.

B2: D127A GCH1 (Homo sapiens; D127A) (protein)
chain: PEAKSAQPADGWKGERPRSEEDNELNLPNLAAAYSSILSSLGENPQRQGLLKTPWRAASAMQFFTKGYQETISDVLNDAIFDEDHAEMVIVKDIDMFSMCEHHLVPFVGKVHIGYLPNKQVLGLSKLARIVEIYSRRLQVQERLTKQIAVAITEALRPAGVGVVVEATHMCMVMRGVQKMNSKTVTSTMLGVFREDPKTREEFLTLIRS
notes: as for B1
As to B2, in series [2], the Km was determined as 483 µM.

B3: F122A GCH1 (Homo sapiens; F122A) (protein)
chain: PEAKSAQPADGWKGERPRSEEDNELNLPNLAAAYSSILSSLGENPQRQGLLKTPWRAASAMQFFTKGYQETISDVLNDAIADEDHDEMVIVKDIDMFSMCEHHLVPFVGKVHIGYLPNKQVLGLSKLARIVEIYSRRLQVQERLTKQIAVAITEALRPAGVGVVVEATHMCMVMRGVQKMNSKTVTSTMLGVFREDPKTREEFLTLIRS
notes: as for B1
As for B3, the Km in series [3] was 434 µM.

B4: R241A-GCH1 (Homo sapiens; R241A) (protein)
chain: PEAKSAQPADGWKGERPRSEEDNELNLPNLAAAYSSILSSLGENPQRQGLLKTPWRAASAMQFFTKGYQETISDVLNDAIFDEDHDEMVIVKDIDMFSMCEHHLVPFVGKVHIGYLPNKQVLGLSKLARIVEIYSRRLQVQERLTKQIAVAITEALRPAGVGVVVEATHMCMVMRGVQKMNSKTVTSTMLGVFREDPKTAEEFLTLIRS
notes: as for B1
On to B4, for which, in series [4], the Km turned out to be 306 µM.
